Data published in patent US20120295811, “APTAMERS DIRECTED AGAINST THE MATRIX PROTEIN-1 OF TYPE A INFLUENZA VIRUSES AND USES […]” (published 2012).

Molecular target: Nucleoprotein (NP) (Influenza A virus, UniProt P03466 SEQ:1-498)
Assay: SPR; 2 uM, 22 C
Details: tags: His tag (pET28a, Co2+ resin purification), E. coli; label: 5'-amino-C12 linker (microarray); hairpin with bulge, internal loop and lateral small hairpin

Nucleoprotein (NP), sequence (P03466 whole entry): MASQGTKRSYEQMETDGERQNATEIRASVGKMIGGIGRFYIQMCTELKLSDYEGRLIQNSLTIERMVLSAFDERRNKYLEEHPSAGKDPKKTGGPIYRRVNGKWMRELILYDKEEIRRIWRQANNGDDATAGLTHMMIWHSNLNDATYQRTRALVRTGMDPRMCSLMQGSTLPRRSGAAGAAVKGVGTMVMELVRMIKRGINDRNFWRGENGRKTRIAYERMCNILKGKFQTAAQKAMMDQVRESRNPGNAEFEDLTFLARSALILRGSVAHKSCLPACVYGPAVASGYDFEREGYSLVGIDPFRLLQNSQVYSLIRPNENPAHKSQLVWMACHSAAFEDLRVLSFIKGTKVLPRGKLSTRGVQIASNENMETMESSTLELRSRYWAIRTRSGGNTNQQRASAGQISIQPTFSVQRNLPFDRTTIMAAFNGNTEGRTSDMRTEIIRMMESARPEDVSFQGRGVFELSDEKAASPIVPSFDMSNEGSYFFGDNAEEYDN

Binder | binding result
UGCCUGACCACUCAGAAUCGAGCGCAUUGGCCGGCA (ssRNA) [M1R9C1 36-mer] | no binding
UGCCCUGACCAUCCUGAGGGACGCAUUGGCCGGGCA (ssRNA) [M1R9C6 36-mer] | no binding
